T1: MatP (Escherichia coli, UniProt P0A8N0 1-150)
T1 sequence: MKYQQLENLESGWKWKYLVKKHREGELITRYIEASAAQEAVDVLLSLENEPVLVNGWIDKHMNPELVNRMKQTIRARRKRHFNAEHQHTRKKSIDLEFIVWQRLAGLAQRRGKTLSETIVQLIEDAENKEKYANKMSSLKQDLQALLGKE

B1: MatP (natural protein, Escherichia coli, UniProt P0A8N0 1-150, looked up)
chain: T1 sequence
notes: also called recombinant untagged MatP; not shown: His6, N-terminal, cleaved
B2: matS-Fl (matS19) (dsDNA)
DNA 1: AAAGTGACACTGTCACCTT
DNA 2: AAGGTGACAGTGTCACTTT

Tests used:
[1] = target: the molecule itself; experiment: AUC + other: light scattering; MatP alone in solution, working buffer (50 mM Tris-HCl, 300 mM KCl, 5 mM MgCl2, pH 7.5); details in the supplement to Fig. S7
MatP = target: T1, MatP; experiment: fluorescence anisotropy; 300 mM KCl, 5 mM MgCl2; Kd in MatP dimer units; 1 dimer per DNA; 50 mM Tris-HCl, 300 mM KCl, 5 mM MgCl2, pH 7.5; temperature not stated; matS-Fl 10 nM in anisotropy titrations; conditions: protein: recombinant; tags: untagged (N-terminal His6 removed by thrombin); chain copies: 2; label: 5'-fluorescein on sense strand

Binder	stoichiometry N [1]	Kd (MatP) [nM]
B1	2	
B2		15 ± 2

Reference: publication PMC6538776, “The Bacterial DNA Binding Protein MatP Involved in Linking the Nucleoid Terminal Domain to the Divisome at Midcell Interacts with Lipid Membranes” (mBio, 2018)
